Measurements: patent US6685912B2, “Post-labeling stabilization of radiolabeled proteins and peptides” (Rhomed Incorporated, priority 1996, dated 2004)

Experiments:
Assay type in all cases: physicochemical
[1] = Elution of Re-188-RC-160 from C18 SepPak columns (step-gradient of acidified ethanol) after adding post-labeling compounds
[2] = Post-labeling stability of radiolabeled RC-160 (uncoupling of isotope) by TLC and RP-HPLC
Protocol: (§1) Radiolabeling kits were prepared using aseptic techniques, with each kit prepared in a 10 ml serum vial using a 2 ml liquid fill. The liquid fill contained 200 μg of RC-160 peptide in 45 mM sodium potassium tartrate, 10 mM potassium hydrogen phthalate buffer, pH 5.0, in 5 mM stannous tartrate with 1% maltose added as a freeze-drying excipient. Each kit contained a maximum of 1.19 μg of tin. After filling, the vials were lyophilized, the head space gas filled with nitrogen, and the vials stoppered and crimped. Lyophilized vials were then stored refrigerated at 2-80C. To label a kit, 4-5 ml of 188Re-perrhenate solution containing 10-100 mCi was added to the kits, and the kits then heated in a boiling water bath for 30-45 minutes. Following a brief cooling period, 2 ml of ascorbic acid for Injection, U.S.P., was added to the labeled kit through a 0.22 micron filter. Two types of parenteral ascorbate were used with similar results, Ascorbic Acid for Injection, U.S.P., 500 mg/2 ml, and Ascorvit™ (a preparation of ascorbate) 100 mg (Jenapharm, Germany). In this study, RC-160 was radiolabeled at pH 5.0 for 30 minutes at 90° C. and ascorbate was added postlabeling. The temperature effect is shown in FIGS. 2A and 2B: 19 minutes for 37° C. and 21 minutes for 900C. Also shown in FIG. 1B is an elution profile of Re-188-RC 160 from a C18 column using a step-gradient of acidified ethenol. […] FIG. 6. […] FIG. 7 and FIGS. 1A and 1B. […] Briefly, aliquots of 100 μl cysteine dissolved in phosphate buffer saline (pH 7.4 with 1 M NaOH) were diluted in separate microfuge tubes to result in a doubling dilution. 100 μl of Re188-RC-160 was added to each tube and mixed by inversion. The samples were incubated at 45 minutes at 37° C. or 90° C. A 10 μl aliquot of each sample was then spotted on heat-treated ITLC strip and chromatographed in PBS, pH 7.4 until the solvent was 0.5 cm from the strip top. The amount of displacement was expressed as % of total radioactivity at the solvent front. The results for two experiments conducted respectively at 37° and 90° C. are shown at FIG. 3. In a related manner, comparative biodistribution profiles of Re-188-RC-160 at 2 hours post injection into the tail vein of adult, female BALB/c mice (≈25 g weight) (n≧5/group) with each animal receiving 0.2 ml containing approximately 4 μCi. Selected organs as shown in FIG. 4 were resected and weighed and the associated radioactivity was determined as a percentage of injected dose pr gram of tissue. The percent dose from blood, bone and muscle was calculated assuming 7, 8.2 and 40% of total body weight for these tissues. 37° C. and 90° C. were the two temperatures at which radio labeling was performed.

[3] = Labeling efficiency of Re-188-RC-160 with ascorbic acid present during labeling (C18 SepPak, RP-HPLC, TLC)
Source text: The results obtained by analytical RP-HPLC were confirmed by TLC studies and by isocratic elutions from C-18 SepPak columns. […] The RP-HPLC results were confirmed by TLC. […] The addition of ascorbate, or ascorbate/sulfite solutions, maximized the reduction of the peptide RC-160, which is present in excess, without compromising ^188Re-RC-160. The radiolabeling kit could be formulated with an excess of stannous ions and RC-160 to accommodate a variety of labeling situations. In the presence of ^188Re, the RC-160 and stannous ions interact to result in what is believed to be metal-cyclized ^188Re-RC-160. […] Since ^188Re is produced essentially carrier-free from a 188W/^188Re generator, it is hypothesized that excess stannous ions will reduce the RC-160 not complexed to ^188Re. […] The net result is a stable radiolabeled peptide with a very high specific activity.

[4] = Cysteine displacement of Re-188 from Re-188-RC-160 (ITLC); conditions: addition of the ascorbate post-labeling
Protocol: Radiolabeling kits were prepared using aseptic techniques, with each kit prepared in a 10 ml serum vial using a 2 ml liquid fill. The liquid fill contained 200 μg of RC-160 peptide in 45 mM sodium potassium tartrate, 10 mM potassium hydrogen phthalate buffer, pH 5.0, in 5 mM stannous tartrate with 1% maltose added as a freeze-drying excipient. Each kit contained a maximum of 1.19 μg of tin. After filling, the vials were lyophilized, the head space gas filled with nitrogen, and the vials stoppered and crimped. Lyophilized vials were then stored refrigerated at 2-80C. To label a kit, 4-5 ml of 188Re-perrhenate solution containing 10-100 mCi was added to the kits, and the kits then heated in a boiling water bath for 30-45 minutes. Following a brief cooling period, 2 ml of ascorbic acid for Injection, U.S.P., was added to the labeled kit through a 0.22 micron filter. […] The amount of displacement was expressed as % of total radioactivity at the solvent front. […] Selected organs as shown in FIG. 4 were resected and weighed and the associated radioactivity was determined as a percentage of injected dose pr gram of tissue. The percent dose from blood, bone and muscle was calculated assuming 7, 8.2 and 40% of total body weight for these tissues. […]

[5] = Elution of Re-188-RC-160 from C18 SepPak columns (step-gradient of acidified ethanol) after adding post-labeling compounds; remark: listed apart in the source
Protocol: FIG. 1B is an elution profile of Re-188-RC-160 from a C18-SepPak column using a step-gradient of acidified ethanol.
as §1

[6] = post-labeling sodium bisulfite (1 mg/ml, pH 5.5)
[7] = post-labeling sodium sulfite (1 mg/ml, pH 7.4)
[8] = NO ASCORBATE during labeling, 20 mCi Re-188
[9] = PLUS ASCORBATE: 400 μg ascorbic acid introduced along with the Re-188, 20 mCi
[10] = post-labeling Ascorbate for Injection, USP
[11] = post-labeling Ascorvit formulation
[12] = post-labeling ascorbate (50 mg/ml, pH 6.0)

For “Re-188-RC-160: RC-160, cyclic somatostatin analogue D-Phe-Cys-Tyr-D-Trp-Lys-Val-Cys-Trp-NH2, radiolabeled with 188Re using stannous kit”, the “% of total radioactivity assayed, 80-100% ethanol fraction” value ([1]; post-labeling SALINE) was 4.0%, the “% of total radioactivity assayed, 40-60% ethanol fraction” value [1, 6] was 94.0% and the “% of total radioactivity assayed, 80-100% ethanol fraction” value [1, 6] was 1.8%. For the same substance, the “% of total radioactivity assayed, retained on column” value [1, 6] was 3.3%, the “% of total radioactivity assayed, 40-60% ethanol fraction” value [1, 7] was 35.8% and the “% of total radioactivity assayed, 80-100% ethanol fraction” value [1, 7] was 3.8%. For the same substance, the stabilization post-labeling ([2]; 50 mg/ml ascorbate compared with 250 mg/ml of ascorbate) was “yielded the same results”, the “free rhenium in HPLC profile” value ([2]; 30 hours post-labeling, 65 mCi of 188Re, ascorbate added after labeling) was “very little free rhenium could be found” and the stability post-labeling ([2]; ascorbate not added, TLC, confirmed by RP-HPLC) was “stable for only up to two hours post-labeling”. For the same substance, the “stability post-labeling (uncoupling of 188Re from the peptide)” value ([2]; post-labeling addition of ascorbate) was “essentially eliminate the uncoupling and stabilize”, the stabilization post-labeling ([2]; sodium sulfite (1 mg/ml pH 7.4), sodium bisulfite (1 mg/ml, pH 5.5), or mixtures of ascorbate with sodium sulfite, sodium bisulfite or EDTA) was “also effective in stabilizing” and the “% of total radioactivity” value [3, 8] was 2.1%. The “% of total radioactivity, 10% ethanol” value [3, 8] was 0.9%, the “% of total radioactivity, 85% ethanol” value [3, 8] was 97.0% and the “% of total radioactivity” value [3, 9] was 1.4%. For the same substance, the “% of total radioactivity, 10% ethanol” value [3, 9] was 52.4%, the “% of total radioactivity, 85% ethanol” value [3, 9] was 46.2% and the “Re-peptide bond strength (cysteine displacement)” value [4] was “not altered”. For the same substance, the “% of total radioactivity assayed, 0-20% ethanol fraction” value [5, 10] was 0.7%, the “% of total radioactivity assayed, 40-60% ethanol fraction” value [5, 10] was 91.5% and the “% of total radioactivity assayed, 80-100% ethanol fraction” value [5, 10] was 1.3%. The “% of total radioactivity assayed, retained on column” value [5, 10] was 6.6%, the “% of total radioactivity assayed, 0-20% ethanol fraction” value [5, 11] was 1.0% and the “% of total radioactivity assayed, 40-60% ethanol fraction” value [5, 11] was 94.0%. For the same substance, the “% of total radioactivity assayed, 80-100% ethanol fraction” value [5, 11] was 1.8%, the “% of total radioactivity assayed, retained on column” value [5, 11] was 3.3% and the “% of total radioactivity assayed, 0-20% ethanol fraction” value ([5]; post-labeling SALINE) was 0.8%. For the same substance, the “% of total radioactivity assayed, 40-60% ethanol fraction” value ([5]; post-labeling SALINE) was 85.4%, the “% of total radioactivity assayed, retained on column” value ([5]; post-labeling SALINE) was 9.7% and the “% of total radioactivity assayed, 0-20% ethanol fraction” value [5, 12] was 0.7%. For the same substance, the “% of total radioactivity assayed, 40-60% ethanol fraction” value [5, 12] was 96.4%, the “% of total radioactivity assayed, 80-100% ethanol fraction” value [5, 12] was 0.9% and the “% of total radioactivity assayed, retained on column” value [5, 12] was 1.8%. The “% of total radioactivity assayed, 0-20% ethanol fraction” value [5, 6] was 1.0%, the “% of total radioactivity assayed, 0-20% ethanol fraction” value [5, 7] was 7.0% and the “% of total radioactivity assayed, retained on column” value [5, 7] was 3.5%.
